Article PMC6399351, “Cationic Intrinsically Disordered Antimicrobial Peptides (CIDAMPs) Represent a New Paradigm of Innate Defense with a Potential for Novel Anti-Infectives” (Scientific Reports, 2019)
Like-named read-outs stand apart in the source and are kept apart here. Ends that are not written are not given here.

What was measured:
E. coli ATCC 11775 = assay: CFU assay of antimicrobial activity; assay type: cell-based, Escherichia coli; conditions: 10 mM NaP
Protocol: (§1) All purified peptides and recombinant proteins were applied using a colony forming unit (CFU) assay in different media. Bacteria were grown to early log-phase in BHI, washed either with 10 mM Na-P, pH 7.4/1% TSB or pH 5.5/1% TSB, or pH 5.5 without TSB or BHI, and adjusted to a concentration of 10^4–10^5 colony forming units (CFU)/ml. For cell number control, 100 µl aliquots were diluted 1:10, 1:100 and 1:1000 and plated in duplicates on BHI agar plates. To 100 µl aliquots of the bacteria, suspended in the respective medium (10 mM Na-P buffer pH 7,0–7,4/ 1% (w/v) TSB; 10 mM Na-P buffer pH 5,5/ 1% (w/v) TSB; 10 mM Na-P buffer pH 7,0–7,4/ 1% (w/v) TSB pH 7,0–7,4/ 0,25% (w/v) glucose; 10 mM Na-P buffer pH 5,5/ 0,25% (w/v) glucose, respectively), 10 µl of a solution of the peptide or protein (two-fold dilutions, from 300 µg/ml or 150 µg/ml down to 19 ng/ml), dissolved in 0.01% (v/v) acetic acid, were added.
(§2) Then bacteria were incubated for 2 h at ambient temperature, if not otherwise stated. 10 µl of 0.01% (v/v) acetic acid, added to 100 µl aliquots of the bacteria in the respective medium, served as negative control. From each test, 1:10 and 1:100 dilutions were generated and plated as duplicates of 100 µl aliquots on BHI agar plates. After 16 h incubation at 37 °C, CFU were counted using a colony counter (Bio Kobe, Japan) and expressed as mean of the duplicate estimation to achieve a complete dose-response curve. All experiments were performed at serial dilutions in a concentration range of 100 µg/mL −25 ng/mL for recombinant HRNR fragments and 300 or 150 µg/mL–19 ng/mL for synthetic peptides.

C. albicans ATCC 24433 = assay: CFU assay of antimicrobial activity; assay type: cell-based, Candida albicans; conditions: 10 mM NaP
Protocol: Bacteria were cultivated in either brain heart infusion medium (BHI), lysogeny broth (LB) or tryptic soy broth (TSB)[88]. If not otherwise stated, bacteria were incubated under shaking conditions (37 °C at 170 rpm) or as indicated on the ATCC- or DSM-data sheets. Candida albicans was cultured for 3 days on Yeast Extract-Peptone Dextrose (YPD) agar at 30 °C and yeast suspensions at appropriate density were treated with CIDAMPs as indicated.
as §1, §2

[1] = system: Streptococcus pneumoniae ATCC 33400; assay: CFU assay of antimicrobial activity; assay type: cell-based; conditions: 10 mM NaP, pH 6.5, 0.25% glucose
Protocol: as §1, with “[…];” for “10 mM Na-P buffer pH 5,5/ 1% (w/v) TSB;”
as §2

[2] = system: Streptococcus pyogenes ATCC 12344; assay: CFU assay of antimicrobial activity; assay type: cell-based; conditions: 10 mM NaP, pH 6.0, 0.25% glucose
Protocol: as §1, with “[…];” for “10 mM Na-P buffer pH 5,5/ 1% (w/v) TSB;”
as §2

[3] = system: Acinetobacter baumannii ATCC 19606; assay: CO-ADD MIC, broth microdilution (CLSI); assay type: cell-based; conditions: Mueller–Hinton broth, 5 × 10^5 CFU/mL, 18 h 37 °C, by CO-ADD
From the text: (§3) They were defined as the lowest peptide
(§4) Further details of the screening

[4] = system: Pseudomonas aeruginosa ATCC 27853; assay: CO-ADD MIC, broth microdilution (CLSI); assay type: cell-based; conditions: Mueller–Hinton broth, 5 × 10^5 CFU/mL, 18 h 37 °C, by CO-ADD
From the text: as §3, §4

[5] = system: Candida albicans ATCC 90028; assay: CO-ADD MIC, antifungal assay (CLSI); assay type: cell-based; conditions: Yeast Nitrogen Base broth, 24 h 35 °C, by CO-ADD
Protocol: (§5) Fungi strains were cultured for 3 days on Yeast Extract-Peptone Dextrose (YPD) agar at 30 °C. A yeast suspension of 1 × 10^6 to 5 × 10^6 cells/mL (as determined by OD530) was prepared from five colonies. These stock suspensions were diluted with Yeast Nitrogen Base (YNB) broth to a final concentration of 2.5 × 10^3 CFU/mL. […] Plates were covered and incubated at 35 °C for 24 h without shaking.

[6] = system: Cryptococcus neoformans ATCC 208821; assay: CO-ADD MIC, antifungal assay (CLSI); assay type: cell-based; conditions: Yeast Nitrogen Base broth, 24 h 35 °C, by CO-ADD
Protocol: as §5

E. coli ATCC 25922 = assay: CO-ADD MIC, broth microdilution (CLSI); assay type: cell-based, Escherichia coli; conditions: Mueller–Hinton broth, 5 × 10^5 CFU/mL, 18 h 37 °C, by CO-ADD
From the text: as §3, §4

P. aeruginosa ATCC 10145 = conditions: CFU assay
S. aureus ATCC 6538 = conditions: CFU assay, 10 mM NaP, pH 5.5, 0.25% glucose
[7] = system: Enterococcus faecium DSM 2146; conditions: CFU assay, 10 mM NaP, pH 5.5, 0.25% glucose
[8] = system: Acinetobacter baumannii ATCC 19606; conditions: CFU assay, 10 mM NaP, pH 6.0, 0.25% glucose
[9] = system: Proteus mirabilis ATCC 21100; conditions: CFU assay, 10 mM NaP, pH 6.0, 0.25% glucose
[10] = system: Burkholderia cepacia ATCC 25416; conditions: CFU assay, 10 mM NaP, pH 5.5, 0.25% glucose
[11] = system: Klebsiella pneumonia ATCC 700603; conditions: MDR strain; CLSI, Mueller–Hinton broth, 5 × 10^5 CFU/mL, 18 h 37 °C, by CO-ADD
[12] = system: Staphylococcus aureus ATCC 43300; conditions: MRSA; CLSI, Mueller–Hinton broth, 5 × 10^5 CFU/mL, 18 h 37 °C, by CO-ADD
trypsin = assay type: in vitro ADME; conditions: for digestion by trypsin: 500 ng, 0.7 nM protease, pH 7.5, 15 h, Western blot
From the text: (§6) All data shown are representatives (n = 3).
(§7) Lane 16 (“without protease”)
(§8) Table 1) have been directly applied. Note the presence of multiple bands, which originate
(§9) from oligomeric HRNR-complexes12. Data shown are representatives (n=3).

α-chymotrypsin = system: T1, α-chymotrypsin; assay: Protease sensitivity testing of HRNR; assay type: in vitro ADME, human; conditions: 10 µg, 18 h 37 °C, 1 ng to 1 pg, SDS-PAGE and HRNR Western blot, n = 3
T1 construct: purchased Sigma
T1 sequence (P17538 34-164 limits assumed, other chains not shown): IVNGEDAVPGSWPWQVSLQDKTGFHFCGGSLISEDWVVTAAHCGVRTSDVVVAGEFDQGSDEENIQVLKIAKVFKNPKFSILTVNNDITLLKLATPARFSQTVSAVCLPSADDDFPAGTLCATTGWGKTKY
T1 sequence (P17538 167-263 limits assumed, other chains not shown): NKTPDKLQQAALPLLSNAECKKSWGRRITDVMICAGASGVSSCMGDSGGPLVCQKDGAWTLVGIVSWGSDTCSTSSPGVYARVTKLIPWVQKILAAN
From the text: as §6

Lys-C = biological target: T2, Lys-C (Lysobacter enzymogenes, UniProt Q7M135); assay: Protease sensitivity testing of HRNR; assay type: in vitro ADME; conditions: n = 3
T2 construct: purchased Roche
T2 sequence (Q7M135 whole entry): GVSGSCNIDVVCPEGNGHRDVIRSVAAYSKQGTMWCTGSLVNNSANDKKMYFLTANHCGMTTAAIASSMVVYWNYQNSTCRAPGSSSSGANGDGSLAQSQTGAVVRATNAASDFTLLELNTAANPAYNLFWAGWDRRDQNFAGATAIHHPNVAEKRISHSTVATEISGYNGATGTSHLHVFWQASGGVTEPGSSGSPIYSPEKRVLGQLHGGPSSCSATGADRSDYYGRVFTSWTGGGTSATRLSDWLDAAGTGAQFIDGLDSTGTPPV
From the text: as §6
Thereafter samples were subjected to a
Data shown are representatives
as §7, §8, §9

enterokinase EKMax = biological target: T3, enterokinase EKMax (Bos taurus, UniProt P98072); assay: Protease sensitivity testing of HRNR; assay type: in vitro ADME; conditions: 10 µg, 18 h 37 °C, 0,1 U to 0,0001 U, SDS-PAGE and HRNR Western blot, n = 3
T3 construct: purchased Invitrogen
T3 sequence (P98072 801-1035 limits assumed): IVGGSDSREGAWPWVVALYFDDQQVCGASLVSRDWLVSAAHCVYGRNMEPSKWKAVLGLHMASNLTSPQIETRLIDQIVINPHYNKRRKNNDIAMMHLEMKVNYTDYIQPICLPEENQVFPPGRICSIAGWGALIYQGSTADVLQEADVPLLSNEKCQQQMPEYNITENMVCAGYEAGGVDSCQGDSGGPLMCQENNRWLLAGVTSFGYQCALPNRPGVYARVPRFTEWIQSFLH
From the text: as §6

thermolysin = thermolysin (Bacillus thermoproteolyticus, UniProt P00800); conditions: 10 µg, 18 h 37 °C, 10 ng to 10 pg, SDS-PAGE and HRNR Western blot, n = 3
thermolysin, sequence (P00800 233-548): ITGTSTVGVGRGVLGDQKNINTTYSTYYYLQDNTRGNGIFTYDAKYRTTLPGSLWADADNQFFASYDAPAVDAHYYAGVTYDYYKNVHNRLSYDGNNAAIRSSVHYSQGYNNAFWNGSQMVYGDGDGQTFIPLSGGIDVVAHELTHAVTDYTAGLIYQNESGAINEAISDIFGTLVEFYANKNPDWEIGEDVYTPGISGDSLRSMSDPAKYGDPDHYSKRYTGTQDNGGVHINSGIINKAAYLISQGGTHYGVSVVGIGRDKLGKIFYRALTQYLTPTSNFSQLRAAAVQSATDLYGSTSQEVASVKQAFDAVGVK

collagenase = conditions: 1 µg, 1 h 37 °C, SDS-PAGE, silver staining; at higher concentrations, n = 3
KLK1 = biological target: T4, KLK1 (Homo sapiens, UniProt P06870); assay: Protease sensitivity testing of HRNR; assay type: in vitro ADME; conditions: 500 ng, 0.7 nM protease, pH 7.5, 15 h, Western blot, n = 3
T4 construct: purchased R&D
T4 sequence (P06870 25-262): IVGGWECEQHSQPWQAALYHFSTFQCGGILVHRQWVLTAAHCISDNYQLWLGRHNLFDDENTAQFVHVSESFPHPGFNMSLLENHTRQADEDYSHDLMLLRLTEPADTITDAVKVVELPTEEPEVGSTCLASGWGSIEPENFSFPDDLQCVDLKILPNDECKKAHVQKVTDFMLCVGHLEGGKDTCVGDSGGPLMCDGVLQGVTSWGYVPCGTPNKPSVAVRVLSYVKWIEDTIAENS
Protocol: as §7
(§10) Table 1) have been directly applied. Note the presence of multiple bands, which originate from oligomeric HRNR-complexes12. Data shown are representatives (n=3).
(§11) Supplementary Fi gur e 14 :
(§12) For SDS-PAGE analyses 250 ng of […]
(§13) manner, however in the absence of a protease. […]
(§14) have been directly applied. Note a marked decrease of PAD1-deiminated rHRNR2591-2684 electromobility (lane 16) relative to rHRNR2591-2684 (lane 17). D ata shown are represent a tives

KLK7 = biological target: T5, KLK7 (Homo sapiens, UniProt P49862); assay: Protease sensitivity testing of HRNR; assay type: in vitro ADME; conditions: 500 ng, 0.7 nM protease, pH 7.5, 15 h, Western blot, n = 3
T5 construct: purchased R&D
T5 sequence (P49862 30-253): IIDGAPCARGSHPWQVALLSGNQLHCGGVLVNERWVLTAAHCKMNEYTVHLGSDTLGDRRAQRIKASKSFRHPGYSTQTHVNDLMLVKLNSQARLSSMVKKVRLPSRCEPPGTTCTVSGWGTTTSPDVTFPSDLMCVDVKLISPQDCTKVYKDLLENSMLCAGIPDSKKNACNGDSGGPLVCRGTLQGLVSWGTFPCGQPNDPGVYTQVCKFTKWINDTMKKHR
Protocol: as §7, §10, §11, §12, §13, §14

[13] = 10 mM NaP, pH 5.5, 0.25% glucose

GRHGSGLGHSSSHGQHGSGSGR [HR 1-18]
LD90 (E. coli ATCC 11775; pH 5.5, 1% TSB): >300 µg/mL
LD90 (C. albicans ATCC 24433; pH 5.5, 0.25% glucose): 18.8 µg/mL
LD90 (C. albicans ATCC 24433; pH 5.5, 1% TSB): 150 µg/mL
LD90 [1]: >300 µg/mL
LD90 [2]: >300 µg/mL
Minimal inhibitory concentration (MIC) [3]: >32 µg/mL
Minimal inhibitory concentration (MIC) [4]: >32 µg/mL
Minimal inhibitory concentration (MIC) [5]: >32 µg/mL
Minimal inhibitory concentration (MIC) [6]: >32 µg/mL
Minimal inhibitory concentration (MIC) (E. coli ATCC 25922): >32 µg/mL
LD90 (P. aeruginosa ATCC 10145; [13]): 0.038 µg/mL
LD90 (P. aeruginosa ATCC 10145; 10 mM NaP, pH 5.5, 1% TSB): 0.15 µg/mL
LD90 (P. aeruginosa ATCC 10145; 10 mM NaP/0.25% glucose/pH 5.5, 1% TSB): 1.18 µg/mL
LD90 (P. aeruginosa ATCC 10145; 10 mM NaP/0.25% glucose/pH 5.5, 3% TSB): 37.5 µg/mL
LD90 (P. aeruginosa ATCC 10145; 10 mM NaP/0.25% glucose/pH 5.5, 10% TSB): > 300 µg/mL
LD90 (S. aureus ATCC 6538): >300 µg/mL
LD90 [7]: 150 µg/mL
LD90 [8]: 1.18 µg/mL
LD90 [9]: >300 µg/mL
LD90 [10]: >300 µg/mL
Minimal inhibitory concentration (MIC) [11]: >32 µg/mL
Minimal inhibitory concentration (MIC) [12]: >32 µg/mL

B1: rHRNR2576–2707: recombinant HRNR fragment (protein, UniProt Q86YZ3 2576-2707, looked up, fragment)
chain: GFGHHESSSGQSSSYSQHGSGSGHSSGYGQHGSRSGQSSRGERHGSSSGSSSHYGQHGSGSRQSSGHGRQGSGSGQSPSRGRHGSGLGHSSSHGQHGSGSGRSSSRGPYESRLGHSSVFGQHESGSGHSSAY
LD90 (E. coli ATCC 11775; pH 5.5, 0.25% glucose): 0.55 µg/mL
LD100 (E. coli ATCC 11775; pH 5.5, 0.25% glucose): >100 µg/mL
LD90 (C. albicans ATCC 24433; pH 5.5, 0.25% glucose): 0.55 µg/mL
LD100 (C. albicans ATCC 24433; pH 5.5, 0.25% glucose): >140 µg/mL
sensitivity towards trypsin (trypsin; 10 µg, 18 h 37 °C, 100 pg to 0,1 pg trypsin (not modified), SDS-PAGE and HRNR Western blot, n = 3): highly sensitive
amount of unmodified trypsin that digests (trypsin; 10 µg, 18 h 37 °C, SDS-PAGE and HRNR Western blot): 1 pg
sensitivity towards α-chymotrypsin (α-chymotrypsin): highly sensitive
sensitivity towards Lys-C (Lys-C; 10 µg, 18 h 37 °C, 10 ng to 10 pg, SDS-PAGE and HRNR Western blot): highly sensitive
sensitivity towards enterokinase EKMax (enterokinase EKMax): highly sensitive
LD90 (P. aeruginosa ATCC 10145; [13]): 0.035 µg/mL
LD100 (P. aeruginosa ATCC 10145; [13]): 0.275 µg/mL
sensitivity towards thermolysin (thermolysin): highly sensitive

B2: rHRNR2591–2684: recombinant HRNR fragment (protein, UniProt Q86YZ3 2591-2684, looked up, fragment)
chain: SQHGSGSGHSSGYGQHGSRSGQSSRGERHGSSSGSSSHYGQHGSGSRQSSGHGRQGSGSGQSPSRGRHGSGLGHSSSHGQHGSGSGRSSSRGPY
LD90 (E. coli ATCC 11775; pH 5.5, 0.25% glucose): 0.2 µg/mL
LD100 (E. coli ATCC 11775; pH 5.5, 0.25% glucose): >100 µg/mL
LD90 (C. albicans ATCC 24433; pH 5.5, 0.25% glucose): 0.39 µg/mL
LD100 (C. albicans ATCC 24433; pH 5.5, 0.25% glucose): 6.25 µg/mL
digestion by trypsin (trypsin; n = 3): digest
digestion by Lys C (Lys-C; 1 µg, 1 h 37 °C, SDS-PAGE, silver staining, at higher concentrations): sensitivity
LD90 (P. aeruginosa ATCC 10145; [13]): 0.025 µg/mL
LD100 (P. aeruginosa ATCC 10145; [13]): 0.1 µg/mL
digestion by collagenase (collagenase): sensitivity

B3: PAD1-deiminated rHRNR2591-2684: Protein Arginine Deiminase 1 (PAD1)-deiminated rHRNR2591–2684, Arg citrullinated (protein, UniProt Q86YZ3 2591-2684, looked up, fragment)
chain: B2 chain
modifications: PAD1-deiminated, arginines citrullinated
notes: Protein Arginine Deiminase 1 (PAD1)-deiminated rHRNR2591–2684, Arg citrullinated
digestion by trypsin (trypsin; n = 3): digest
digestion by LysC (Lys-C; 500 ng, 0.7 nM protease, pH 7.5, 15 h, Western blot): digest
digestion by KLK1 (KLK1): digest
digestion by KLK7 (KLK7): digest
